Assay [1] deals with T1, mNPR1-mFc (mouse).
T1 construct: also called mouse NPR1 extracellular domain expressed with a C-terminal mouse IgG2a
T1 chain: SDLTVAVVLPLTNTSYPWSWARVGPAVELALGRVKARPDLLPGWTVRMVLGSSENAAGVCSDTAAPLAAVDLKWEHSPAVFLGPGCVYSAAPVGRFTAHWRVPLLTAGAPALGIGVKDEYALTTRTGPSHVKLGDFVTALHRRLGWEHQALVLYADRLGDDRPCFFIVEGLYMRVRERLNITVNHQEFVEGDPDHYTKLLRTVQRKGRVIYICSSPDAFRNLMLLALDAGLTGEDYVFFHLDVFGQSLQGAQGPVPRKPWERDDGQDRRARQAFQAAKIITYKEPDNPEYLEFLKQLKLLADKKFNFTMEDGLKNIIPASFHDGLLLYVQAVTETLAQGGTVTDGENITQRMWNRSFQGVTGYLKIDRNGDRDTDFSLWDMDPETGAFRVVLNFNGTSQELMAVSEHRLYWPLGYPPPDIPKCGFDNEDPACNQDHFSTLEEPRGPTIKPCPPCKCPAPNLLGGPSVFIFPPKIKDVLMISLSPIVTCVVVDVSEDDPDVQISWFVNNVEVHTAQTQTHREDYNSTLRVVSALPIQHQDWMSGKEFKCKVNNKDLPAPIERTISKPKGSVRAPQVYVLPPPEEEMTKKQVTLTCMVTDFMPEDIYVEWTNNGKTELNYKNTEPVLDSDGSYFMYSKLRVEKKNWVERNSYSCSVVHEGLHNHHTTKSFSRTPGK
The experiment in a line: SPR Biacore, mAb captured by anti-human Fc, 25C. As for the experimental part:
(§1) Equilibrium dissociation constant (KD) for different NPR1 reagents binding to purified anti-NPR1 monoclonal antibodies (mAbs) were determined using a real-time surface plasmon resonance based Biacore 4000 biosensor. All binding studies were performed in 10 mM HEPES, 150 mM NaCl, 3 mM EDTA, and 0.05% v/v Surfactant Tween-20, pH 7.4 (HBS-ET) running buffer at 25° C. and 37° C. The Biacore CM5 sensor chip surface was first derivatized by amine coupling with either mouse anti-human Fc specific mAb (GE Healthcare, #BR100839) or goat anti-human Fcy specific polyclonal antibody (Jackson ImmunoResearch Laboratories, #BR-1008-39) to capture anti-NPR1 mAbs.

Assay [2] addresses T1, mNPR1-mFc. The experiment in a line: SPR Biacore, mAb captured by anti-human Fc, 37C. As to the method:
as §1
(In general: SPR reads the build-up and loss of mass on a sensor chip optically.)

Assay [3] has as its target T2, mfNPR1-mFc:hBNP complex (monkey; human, UniProt P16860 103-134).
T2 construct: Receptor-Fc pre-complexed with 10-fold hBNP
The experiment in a line: SPR Biacore, mAb captured by anti-human Fc, 37C. As to the method: as §1

The target of assay [4] is T3, human NPR1 on HEK293/hNPR1.myc.DDK cells (0 hANP) (human, UniProt P16066 33-1061).
T3 construct: Full-length receptor on engineered HEK293 cells, no ANP added; also called HEK293/hNPR1.myc.DKK
T3 sequence: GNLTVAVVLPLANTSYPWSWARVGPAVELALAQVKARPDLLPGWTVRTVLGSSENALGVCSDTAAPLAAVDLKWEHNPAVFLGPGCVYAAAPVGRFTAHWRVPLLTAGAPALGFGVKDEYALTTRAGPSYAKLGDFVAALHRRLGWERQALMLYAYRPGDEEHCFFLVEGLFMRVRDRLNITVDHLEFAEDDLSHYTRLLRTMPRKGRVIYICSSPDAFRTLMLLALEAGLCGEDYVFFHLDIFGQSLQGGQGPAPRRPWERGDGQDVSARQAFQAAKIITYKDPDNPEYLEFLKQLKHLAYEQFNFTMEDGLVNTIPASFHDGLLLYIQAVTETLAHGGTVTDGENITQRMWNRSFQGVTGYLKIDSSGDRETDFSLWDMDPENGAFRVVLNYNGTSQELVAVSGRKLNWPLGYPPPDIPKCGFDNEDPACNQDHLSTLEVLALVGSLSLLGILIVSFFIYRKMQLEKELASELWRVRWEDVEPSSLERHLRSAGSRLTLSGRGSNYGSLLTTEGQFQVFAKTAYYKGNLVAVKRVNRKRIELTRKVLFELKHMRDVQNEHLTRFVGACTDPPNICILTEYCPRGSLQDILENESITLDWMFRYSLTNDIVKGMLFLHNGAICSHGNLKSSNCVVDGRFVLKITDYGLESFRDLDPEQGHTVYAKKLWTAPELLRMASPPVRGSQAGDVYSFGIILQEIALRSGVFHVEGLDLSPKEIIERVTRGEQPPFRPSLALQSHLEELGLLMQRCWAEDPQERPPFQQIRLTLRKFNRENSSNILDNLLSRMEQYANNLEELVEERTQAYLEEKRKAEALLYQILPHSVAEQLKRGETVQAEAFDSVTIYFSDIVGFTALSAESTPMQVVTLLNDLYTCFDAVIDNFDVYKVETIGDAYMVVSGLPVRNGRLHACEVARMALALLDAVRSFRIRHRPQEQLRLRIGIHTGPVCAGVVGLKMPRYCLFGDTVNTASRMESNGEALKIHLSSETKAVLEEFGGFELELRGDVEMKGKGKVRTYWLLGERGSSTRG
The experiment in a line: ECL cell binding (MSD), 0 hANP. As for the experimental part:
(§2) All cells were washed once with 1×PBS with Ca²⁺/Mg²⁺ and counted with a Cellometer™ Auto T4 cell counter (Nexcelom Bioscience). Approximately 2.0×10⁴ HEK293/hNPR1.myc.DDK or HEK293 cells were seeded separately onto 96-well carbon electrode plates (MULTI-ARRAY high bind plate, Meso Scale Discovery (MSD, Rockville, MD)) and incubated for 1 hour (h) at 37° C. Nonspecific binding sites were blocked by 2% BSA (w/v) in 1×PBS with Ca²⁺/Mg²⁺for 1 h at room temperature (RT). HEK293/hNPR1.myc. […] The plate-bound antibodies were detected with SULFO-TAG™-conjugated goat polyclonal anti-human IgG antibody specific for heavy and light chains (Jackson Immunoresearch, West Grove, PA) for 1 h, RT.
(§3) After washes, plates were developed with Read Buffer (MSD, Rockville, MD) according to manufacturer's recommended procedure and luminescent signals were recorded with a SECTOR Imager 600 (MSD, Rockville, MD). Luminescence intensity, measured in relative light units (RLU), was recorded to indicate the binding intensity of each antibody at the range of concentrations.
(§4) In addition, direct binding signals (RLU) were analyzed as a function of the antibody concentration and data were fitted with a sigmoidal (four-parameter logistic) dose-response model using R statistical package (open source).

The target of assay [5] is T4, human NPR1 on HEK293/hNPR1.myc.DDK cells with 10 nM hANP (NPR1-ANP complex) (human, UniProt P01160 124-151).
T4 construct: also called NPR1-ANP Complex on the Cell Surface
T4 sequence: T3 sequence
T4 sequence (peptide): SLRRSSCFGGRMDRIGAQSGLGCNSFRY
The experiment in a line: ECL cell binding (MSD), +10 nM hANP. As to the method:
as §2, §3, §4

The target in assay [6] is T3, human NPR1 on HEK293/hNPR1.myc.DDK …. The experiment in a line: cell-based or functional assay.

This is an account of results in patent publication US20240309103A1 (Regeneron, published 2024).

Positions count from the first letter of the chain named.

B1: mAb25498 (antibody, human IgG4, V domains shown)
VH: QVQLVESGGGVVQPGRSLRLSCVASGFTFSSYGMVWVRQTPGKGLEWVAVIWHDGTNNYYADSVKGRFTISRDNSKNTLYLQMNSLRAEDTAVYYCAREPWLVRGYYYYAMDVWGQGTTVTVSS
VL: not shown
B1: the “100 nM Ag Bound (RU)” value in assay [1] came to 0 RU. In assay [2], the “100 nM Ag Bound (RU)” value worked out at 0 RU and the binding result is “no binding (tested: 100 nM)”. Moreover, in assay [3], the “100 nM Ag Bound (RU)” value was found to be 113 RU, the dissociation constant (Kd) came out at 8.91 nM, the off-rate constant (koff) is 0.000464 s⁻¹ and the on-rate (kon) amounted to 52100 M⁻¹ s⁻¹. Also, the t½ in assay [3] came to 24.9 min. Moreover, in assay [4], the EC50 was found to be 4.6 nM and the “Ratio at 3.7 nM Ab concentration of Cell Binding Signal (RLU) to HEK293/hNPR1.myc.DKK relative to parental HEK293” value was 41 ratio. Besides, in assay [5], the EC50 stood at 1.8 nM and the “Ratio at 3.7 nM Ab concentration of Cell Binding Signal (RLU) to HEK293/hNPR1.myc.DKK relative to parental HEK293” value came to 49 ratio. Besides, in assay [6], the “% Activation (vs ANP max), Expt 1” value is 67.7% and the “EC50 (nM), calcium flux, Expt 1” value is 335 nM.

B2: mAb25508 (antibody, human IgG4, V domains shown)
VH: EVQLVESGGGVVRPGGSLRLSCAASGFNVDDYGMSWVRQIPGKGLEWISGINWNGGRIYYADSMKGRITISRDNAKNSLYLQMNSLRAEDTALYHCVRDQWLVRGLDYWGQGTLVTVSS
VL: DIQMTQSPSSLSASVGDRVTITCRASQGIYNYLAWFQQKPGKAPKSLIYAASSLQSGVPSKFSGSGSGTDFTLTISSLQPEDFATYYCQQYNTYPYTFGQGTKLEIK
Turning to B2, in assay [1], the “100 nM Ag Bound (RU)” value was -1 RU. Moreover, the “100 nM Ag Bound (RU)” value in assay [2] was 0 RU. Moreover, in assay [3], the “100 nM Ag Bound (RU)” value came out at 266 RU; the affinity, expressed as Kd, was 0.354 nM; the koff stood at 0.00015 s⁻¹; the on-rate (kon) was 423000 M⁻¹ s⁻¹. This molecule also came in with a t½ in assay [3] of 77.1 min. Also, the “Ratio at 3.7 nM Ab concentration of Cell Binding Signal (RLU) to HEK293/hNPR1.myc.DKK relative to parental HEK293” value in assay [4] came to 18 ratio. Moreover, in assay [5], the half-maximal effective concentration (EC50) is 1.3 nM and the “Ratio at 3.7 nM Ab concentration of Cell Binding Signal (RLU) to HEK293/hNPR1.myc.DKK relative to parental HEK293” value was found to be 35 ratio. Moreover, in assay [6], the “% Activation (vs ANP max), Expt 1” value was determined as 56.1% and the “EC50 (nM), calcium flux, Expt 1” value was determined as 326 nM.

B3: mAb25497 (antibody, human IgG4, V domains shown)
VH: QVQLVQSGAEVKEPGASVKVSCKASGYTFTDYYIHWVRQAPGQGLEWMGWINLNSGGKNHAQKFQGRVTVTSDTSINTAYIELGRLRGDDTAVYYCSRGGGSHYYYYYHGMDVWGQGTTVTVSS
VL: DIQMTQSPSSLSASVGDRITITCRASHSIDSYLNWYQQKPGKAPKLLIYPASTLQSGVPSRFSGSGSGTDFTLTISSLQPEDSAIYYCQQSYSTPLTFGGGTKVEIK
In the case of B3, the “100 nM Ag Bound (RU)” value in assay [1] came to 1 RU. In addition, in assay [2], the “100 nM Ag Bound (RU)” value is 1 RU and the binding result is given as “no binding (tested: 100 nM)”. Further, in assay [3], the “100 nM Ag Bound (RU)” value turned out to be 100 RU, binding was characterised by a dissociation constant (Kd) of 2.9 nM, the koff is 0.000166 s⁻¹ and the on-rate constant (kon) was 57400 M⁻¹ s⁻¹. In assay [3], this molecule had a t½ of 69.5 min. Also, in assay [4], the EC50 is 1.5 nM and the “Ratio at 3.7 nM Ab concentration of Cell Binding Signal (RLU) to HEK293/hNPR1.myc.DKK relative to parental HEK293” value was found to be 50 ratio. Moreover, in assay [5], the 50% effective concentration (EC50) is 0.87 nM and the “Ratio at 3.7 nM Ab concentration of Cell Binding Signal (RLU) to HEK293/hNPR1.myc.DKK relative to parental HEK293” value came out at 87 ratio. Further, in assay [6], the “% Activation (vs ANP max), Expt 1” value amounted to 71.1%; the “% Activation (vs. ANP max), Expt II” value is 103%; the “EC50 (nM), calcium flux, Expt 1” value was 72.6 nM; the “EC50 (nM), calcium flux, Expt II” value came to 56.4 nM.

B4: mAb25479 (antibody, human IgG4, V domains shown)
VH: QVQLVQSGAEVKKPGASVKVSCKASGYTFTGYYIHWVRQAPGQGLEWMGWINPNSIGTNYAQKFQGRVTLTRDTSISTAYMELSSLRSDDTAVYYCARGGSSSYYYYYYGMDVWGQGTTVTVSS
VL: B3 VL with I19V, H27Q, S31N, P50V, T53S, S83F, I85T
B4: the “100 nM Ag Bound (RU)” value in assay [1] was -1 RU. In addition, the “100 nM Ag Bound (RU)” value in assay [2] is 2 RU. In assay [3], the “100 nM Ag Bound (RU)” value was 135 RU, the Kd was found to be 5.53 nM, the koff turned out to be 0.000293 s⁻¹ and the on-rate (kon) was 53000 M⁻¹ s⁻¹. The molecule also showed a t½ in assay [3] of 39.4 min. In assay [4], a half-maximal response (EC50) required 1.7 nM and the “Ratio at 3.7 nM Ab concentration of Cell Binding Signal (RLU) to HEK293/hNPR1.myc.DKK relative to parental HEK293” value was 30 ratio. For the same molecule, in assay [5], the EC50 came to 1.2 nM and the “Ratio at 3.7 nM Ab concentration of Cell Binding Signal (RLU) to HEK293/hNPR1.myc.DKK relative to parental HEK293” value stood at 51 ratio. In assay [6], the “% Activation (vs ANP max), Expt 1” value turned out to be 66.7%; the “% Activation (vs. ANP max), Expt II” value was determined as 82.8%; the “EC50 (nM), calcium flux, Expt 1” value is 174 nM; the “EC50 (nM), calcium flux, Expt II” value stood at 102 nM.

The term Kd denotes a measure of binding affinity in units of concentration. A word on the koff: it is the rate constant with which the complex falls apart. A low value points to slow dissociation. In general, kon refers to the rate constant with which the complex forms. A higher kon goes with fast association. As usually defined, the t½ is the time in which the quantity being followed falls by half. A high value points to slow decline. For orientation: EC50 means the concentration at which the effect is half-maximal. Higher therefore signals a less potent agent.
